Measured values from article PMC8512704, “A Uniform Benchmark for Testing SsrA-Derived Degrons in the Escherichia coli ClpXP Degradation Pathway” (Molecules, 2021).
No end group written: not given here.

T1: SspB (Escherichia coli, UniProt P0AFZ3 1-165)
T1 chain: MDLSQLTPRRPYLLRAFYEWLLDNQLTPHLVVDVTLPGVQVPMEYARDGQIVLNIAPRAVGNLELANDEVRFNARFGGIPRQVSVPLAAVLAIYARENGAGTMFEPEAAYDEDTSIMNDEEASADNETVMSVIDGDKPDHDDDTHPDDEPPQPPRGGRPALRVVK

B1: eGFP-AANDENYAANDENY (peptide)
chain: eGFP-AANDENYAANDENY
notes: two repeats of the AANDENY motif of the ssrA tag, appended to the C-terminus of eGFP; Degron fused to the C-terminus of His-TEV-eGFP; source: E. coli ΔclpP Keio strain (JW0427) (earlier Top10), pBAD, purified (HisTrap and Superdex200 in tandem); not shown: His-TEV, N-terminal, kept; eGFP, N-terminal, kept
B2: eGFP-AANDENY (peptide)
chain: eGFP-AANDENY
notes: AANDENY motif of the E. coli ssrA tag, appended to the C-terminus of eGFP; Degron fused to the C-terminus of His-TEV-eGFP; source: E. coli ΔclpP Keio strain (JW0427) (earlier Top10), pBAD, purified (HisTrap and Superdex200 in tandem); not shown: His-TEV, N-terminal, kept; eGFP, N-terminal, kept
B3: eGFP-AANDENYSENYALAA (peptide)
chain: eGFP-AANDENYSENYALAA
notes: ssrA tag variant with the SENY linker between AANDENY and ALAA, appended to the C-terminus of eGFP; Degron fused to the C-terminus of His-TEV-eGFP; source: E. coli ΔclpP Keio strain (JW0427) (earlier Top10), pBAD, purified (HisTrap and Superdex200 in tandem); not shown: His-TEV, N-terminal, kept; eGFP, N-terminal, kept
B4: eGFP-AANDENYALAA (peptide)
chain: eGFP-AANDENYALAA
notes: ssrA tag of Escherichia coli, the 11 amino acids added by trans-translation (tmRNA), appended to the C-terminus of eGFP; Degron fused to the C-terminus of His-TEV-eGFP; also called eGFP-ssrA; eGFP-SsrA; source: E. coli ΔclpP Keio strain (JW0427) (earlier Top10), pBAD, purified (HisTrap and Superdex200 in tandem); not shown: His-TEV, N-terminal, kept; eGFP, N-terminal, kept
B5: eGFP-AANDENYSENY (peptide)
chain: eGFP-AANDENYSENY
notes: AANDENY motif of the ssrA tag followed by the SENY linker, appended to the C-terminus of eGFP; Degron fused to the C-terminus of His-TEV-eGFP; source: E. coli ΔclpP Keio strain (JW0427) (earlier Top10), pBAD, purified (HisTrap and Superdex200 in tandem); not shown: His-TEV, N-terminal, kept; eGFP, N-terminal, kept
B6: eGFP-AANDENYSENYADAS (peptide)
chain: eGFP-AANDENYSENYADAS
notes: ssrA tag variant with the SENY linker and the C-terminal ALAA replaced by ADAS, appended to the C-terminus of eGFP; Degron fused to the C-terminus of His-TEV-eGFP; source: E. coli ΔclpP Keio strain (JW0427) (earlier Top10), pBAD, purified (HisTrap and Superdex200 in tandem); not shown: His-TEV, N-terminal, kept; eGFP, N-terminal, kept
B7: eGFP-AANDENYADAS (peptide)
chain: eGFP-AANDENYADAS
notes: ssrA tag variant with the C-terminal ALAA replaced by ADAS, appended to the C-terminus of eGFP; Degron fused to the C-terminus of His-TEV-eGFP; source: E. coli ΔclpP Keio strain (JW0427) (earlier Top10), pBAD, purified (HisTrap and Superdex200 in tandem); not shown: His-TEV, N-terminal, kept; eGFP, N-terminal, kept
B8: SspB (natural protein, Escherichia coli, UniProt P0AFZ3 1-165, looked up)
chain: T1 chain

Molecular target: T1, SspB
Assay: MST
Conditions: not given

Binder | Kd
B1 | 120 nM
B2 | 110 nM
B3 | 140 nM

molecular target: B8; assay: MST; 50 nM eGFP-degron (eGFP fluorescence), SspB titrated 3.72 nM to 122 μM; 25 mM Hepes pH 7.6, 200 mM KCl, 5 mM MgCl2, 10% glycerol, 0.05% Tween 20; 15 min at RT; measured at 20 °C, Monolith NT.115; conditions: both partners purified

Binder | Kd | binding result
B4 | 80 nM | –
B1 | – | binds
B5 | 100 nM | –
B2 | – | binds
B3 | – | binds
B6 | 300 nM | –
B7 | 330 nM | –

molecular target: ClpX (Escherichia coli, UniProt P0A6H1 1-424); assay: cell-based or functional assay; conditions: not given
Sequence (P0A6H1 whole entry): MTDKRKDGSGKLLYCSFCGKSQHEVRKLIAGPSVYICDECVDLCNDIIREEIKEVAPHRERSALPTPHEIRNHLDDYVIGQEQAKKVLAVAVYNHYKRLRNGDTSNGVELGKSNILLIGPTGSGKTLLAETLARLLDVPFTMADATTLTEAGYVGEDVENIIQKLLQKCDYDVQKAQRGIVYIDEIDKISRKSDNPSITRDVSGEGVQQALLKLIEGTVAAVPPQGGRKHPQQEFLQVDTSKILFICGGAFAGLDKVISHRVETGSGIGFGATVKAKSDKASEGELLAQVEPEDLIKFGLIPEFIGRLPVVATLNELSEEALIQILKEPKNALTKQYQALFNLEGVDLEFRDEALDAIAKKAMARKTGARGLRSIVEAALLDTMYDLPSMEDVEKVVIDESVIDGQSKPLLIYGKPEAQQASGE

Binder | ClpX ATPase activity (NADH-coupled assay, 0.08 µM ClpX6, 30 °C) with increasing SspB2 (0-27.4 μM): increase of reaction velocity
B8 | ~2 fold

Molecular target: T1, SspB
Assay: MST
Conditions: not given
Remark: another data set of the same source

Binder | Ka
B4 | 1.32e+07 M⁻¹
B1 | 9.56e+06 M⁻¹
B5 | 9.78e+06 M⁻¹
B2 | 1.08e+07 M⁻¹
B3 | 7.8e+06 M⁻¹
B6 | 3.37e+06 M⁻¹
B7 | 3.02e+06 M⁻¹
